Reference: article PMC8639217, “Structure of New Binary and Ternary DNA Polymerase Complexes From Bacteriophage RB69”

Biological target: T1, RB69 DNA polymerase exo- (RB69pol) (Enterobacteria phage RB69, UniProt Q38087 1-903, D222A;D327A)
T1 sequence: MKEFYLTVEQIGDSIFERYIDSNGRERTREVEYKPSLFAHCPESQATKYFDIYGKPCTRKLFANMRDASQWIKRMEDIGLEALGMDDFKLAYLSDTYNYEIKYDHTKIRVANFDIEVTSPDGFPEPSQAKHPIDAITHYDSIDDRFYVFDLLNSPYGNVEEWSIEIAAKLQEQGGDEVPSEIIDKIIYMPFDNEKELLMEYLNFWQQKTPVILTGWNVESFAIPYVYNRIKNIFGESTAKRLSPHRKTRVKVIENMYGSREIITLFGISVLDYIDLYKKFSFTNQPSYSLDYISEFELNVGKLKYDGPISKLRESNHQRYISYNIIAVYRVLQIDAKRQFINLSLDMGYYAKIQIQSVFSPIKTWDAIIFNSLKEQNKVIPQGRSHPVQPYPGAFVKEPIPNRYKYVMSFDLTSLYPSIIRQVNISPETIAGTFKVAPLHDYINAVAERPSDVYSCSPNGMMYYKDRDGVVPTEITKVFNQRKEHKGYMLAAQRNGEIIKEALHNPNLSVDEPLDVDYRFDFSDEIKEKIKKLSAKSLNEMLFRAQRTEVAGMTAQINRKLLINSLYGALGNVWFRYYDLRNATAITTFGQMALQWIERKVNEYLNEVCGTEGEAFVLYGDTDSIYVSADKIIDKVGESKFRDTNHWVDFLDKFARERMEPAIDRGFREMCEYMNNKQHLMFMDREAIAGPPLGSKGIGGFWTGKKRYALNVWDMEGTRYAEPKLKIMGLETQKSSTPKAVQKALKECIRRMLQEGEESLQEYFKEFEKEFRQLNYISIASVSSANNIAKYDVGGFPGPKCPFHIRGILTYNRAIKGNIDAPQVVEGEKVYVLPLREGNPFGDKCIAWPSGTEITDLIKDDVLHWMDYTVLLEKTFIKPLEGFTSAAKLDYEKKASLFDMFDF
Assay: X-ray crystallography (2.2 A); MolA: closed ternary complex with dUpNpp, single Ca2+ at B site; rGMP in NTD; Complex (1:1.2 protein:DNA) in 10 mM Tris-HCl pH 8.0, 50 mM NaCl, 10 mM CaCl2, 5 mM DTT, 5% glycerol, 1 mM dUpNpp, 12 h 4 C; crystals at 21 C in 50 mM Na cacodylate pH 5.0, 2-7% isopropanol, 5 mM MgCl2, 2 mM NaCl, 12 mM spermine
Settings: protein: recombinant; tags: N-terminal His6 removed with TEV protease; 15 bp; 5' overhang 1 nt on primer, 5' overhang 4 nt on template; 1:1

B1: primer/template (P/T) duplex (dsDNA)
DNA 1: GGAGCGGACTGCTTAC
DNA 2: TCAAGTAAGCAGTCCGCTC
binding result: binds
